Source: publication PMC4726456

Molecular target: 15-residue tubulin peptide

acetylation activity kept with a 15-residue tubulin peptide (data not shown): 89 % activity
Substance: F105A TAT mutant (from UniProt Q5SQI0 1-421) (enzyme)
